# B1: PPFIA4 (parent)
# chain: YAGNLHESGVHGALLALDENFDHN
# Variants of: B1
# Experiment: protein stability index of a GFP-peptide fusion (GPS, HEK-293T) (PSI 1-6); higher = more stable
# Settings: c terminus: a fixed tail appended
# 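Also: lentivirally expressed fusions sorted by FACS into six bins by GFP to DsRed ratio, PSI derived from sequencing read proportions per bin multiplied by bin number.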
row,Variant,protein stability index
1,YAGNLHESGVHGALLASDENFDHN,4.03
2,YAGNLHESGVHGALLATDENFDHN,3.04
3,YAGNLHESGVHGALLAVDENFDHN,2.47
4,YAGNLHESGVHGALLAWDENFDHN,2.4
5,YAGNLHESGVHGALLAYDENFDHN,1.76
6,YAGNLHESGVHGALLALAENFDHN,1.66
7,YAGNLHESGVHGALLALCENFDHN,1.34
8,YAGNLHESGVHGALLALEENFDHN,2.82
9,YAGNLHESGVHGALLALFENFDHN,1.69
10,YAGNLHESGVHGALLALGENFDHN,1.95
11,YAGNLHESGVHGALLALHENFDHN,2.11
12,YAGNLHESGVHGALLALIENFDHN,2.2
13,YAGNLHESGVHGALLALKENFDHN,2.54
14,YAGNLHESGVHGALLALLENFDHN,1.76
15,YAGNLHESGVHGALLALMENFDHN,2.38
16,YAGNLHESGVHGALLALNENFDHN,2.74
17,YAGNLHESGVHGALLALPENFDHN,2.16
18,YAGNLHESGVHGALLALQENFDHN,2.65
19,YAGNLHESGVHGALLALRENFDHN,2.55
20,YAGNLHESGVHGALLALSENFDHN,1.87
21,YAGNLHESGVHGALLALTENFDHN,2.13
22,YAGNLHESGVHGALLALVENFDHN,2.07
23,YAGNLHESGVHGALLALWENFDHN,2
24,YAGNLHESGVHGALLALYENFDHN,2.14

row,Variant,protein stability index
1,YAGNLHESGVHGALLALDANFDHN,2.08
2,YAGNLHESGVHGALLALDCNFDHN,1.33
3,YAGNLHESGVHGALLALDDNFDHN,2.6
4,YAGNLHESGVHGALLALDFNFDHN,1.61
5,YAGNLHESGVHGALLALDGNFDHN,2.1
6,YAGNLHESGVHGALLALDHNFDHN,1.31
7,YAGNLHESGVHGALLALDINFDHN,2.97
8,YAGNLHESGVHGALLALDKNFDHN,1.5
9,YAGNLHESGVHGALLALDLNFDHN,1.24
10,YAGNLHESGVHGALLALDMNFDHN,1.65
11,YAGNLHESGVHGALLALDNNFDHN,2.2
12,YAGNLHESGVHGALLALDPNFDHN,1.6
13,YAGNLHESGVHGALLALDQNFDHN,1.64
14,YAGNLHESGVHGALLALDRNFDHN,2.06
15,YAGNLHESGVHGALLALDSNFDHN,1.54
16,YAGNLHESGVHGALLALDTNFDHN,2.68
17,YAGNLHESGVHGALLALDVNFDHN,2
18,YAGNLHESGVHGALLALDWNFDHN,3.17
19,YAGNLHESGVHGALLALDYNFDHN,1.61
20,YAGNLHESGVHGALLALDEAFDHN,2.68
21,YAGNLHESGVHGALLALDECFDHN,2.32
22,YAGNLHESGVHGALLALDEDFDHN,2.98
23,YAGNLHESGVHGALLALDEEFDHN,3.07
24,YAGNLHESGVHGALLALDEFFDHN,2.17

row,Variant,protein stability index
1,YAGNLHESGVHGALLALDEGFDHN,3.1
2,YAGNLHESGVHGALLALDEHFDHN,2.48
3,YAGNLHESGVHGALLALDEIFDHN,1.79
4,YAGNLHESGVHGALLALDEKFDHN,2.23
5,YAGNLHESGVHGALLALDELFDHN,1.63
6,YAGNLHESGVHGALLALDEMFDHN,2.09
7,YAGNLHESGVHGALLALDEPFDHN,2.63
8,YAGNLHESGVHGALLALDEQFDHN,1.86
9,YAGNLHESGVHGALLALDERFDHN,2.25
10,YAGNLHESGVHGALLALDESFDHN,2.58
11,YAGNLHESGVHGALLALDETFDHN,2.16
12,YAGNLHESGVHGALLALDEVFDHN,2.42
13,YAGNLHESGVHGALLALDEWFDHN,2.27
14,YAGNLHESGVHGALLALDEYFDHN,2.24
15,YAGNLHESGVHGALLALDENADHN,2.9
16,YAGNLHESGVHGALLALDENCDHN,3.23
17,YAGNLHESGVHGALLALDENDDHN,3.92
18,YAGNLHESGVHGALLALDENEDHN,3.93
19,YAGNLHESGVHGALLALDENGDHN,3.58
20,YAGNLHESGVHGALLALDENHDHN,3
21,YAGNLHESGVHGALLALDENIDHN,2.69
22,YAGNLHESGVHGALLALDENKDHN,2.89
23,YAGNLHESGVHGALLALDENLDHN,3.51
24,YAGNLHESGVHGALLALDENMDHN,2.85

row,Variant,protein stability index
1,YAGNLHESGVHGALLALDENNDHN,3.85
2,YAGNLHESGVHGALLALDENPDHN,3.45
3,YAGNLHESGVHGALLALDENQDHN,3.08
4,YAGNLHESGVHGALLALDENRDHN,2.53
5,YAGNLHESGVHGALLALDENSDHN,3.56
6,YAGNLHESGVHGALLALDENTDHN,3.37
7,YAGNLHESGVHGALLALDENVDHN,2.63
8,YAGNLHESGVHGALLALDENWDHN,2.69
9,YAGNLHESGVHGALLALDENYDHN,2.6
10,YAGNLHESGVHGALLALDENFAHN,2.56
11,YAGNLHESGVHGALLALDENFCHN,1.65
12,YAGNLHESGVHGALLALDENFEHN,2.48
13,YAGNLHESGVHGALLALDENFFHN,2.01
14,YAGNLHESGVHGALLALDENFGHN,2.4
15,YAGNLHESGVHGALLALDENFHHN,1.84
16,YAGNLHESGVHGALLALDENFIHN,2.11
17,YAGNLHESGVHGALLALDENFKHN,2.37
18,YAGNLHESGVHGALLALDENFLHN,1.46
19,YAGNLHESGVHGALLALDENFMHN,2.3
20,YAGNLHESGVHGALLALDENFNHN,1.99
21,YAGNLHESGVHGALLALDENFPHN,2.47
22,YAGNLHESGVHGALLALDENFQHN,2.2

# Reference: the supplement of paper PMC10567573
